The nature of the data set: self-splicing fitness, log relative to wild type (ln ratio); higher = more splicing; Tetrahymena group I intron in knt gene, E. coli kanamycin selection, DiMSum; sequences stand for … in CUCUCU…GGAGGGAAAAGUUAUCAGGCAUGCACCUGGUAGCUAGUCUUUAAACCAAUAGAUUGCAUCGGUUUAAAAGGCAAGACCGUCAAAUUGCGGGAAAGGGGUCAACAGCCGUUCAGUACCAAGUCUCAGGGGAAACUUUGAGAUGGCCUUGCAAAGGGUAUGGUAAUAAGCUGACGGACAUGGUCCUAACCACGCAGCCAAGUCCUAAGUCAACAGAUCUUCUGUUGAUAUGGAUGCAGUUCACAGACUAAAUGUCGGUCGGGGAAGAUGUAUUCUUCUCAUAAGAUAUAGUCGGACCUCUCCUUAAUGGGAGCUAGCGGAUGAAGUGAUGCAACACUGGAGCCGCUGGGAACUAAUUUGUAUGCGAAAGUAUAUUGAUUAGUUUUGGAGUACUCGUGGUCG
The procedure, abridged:
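Six replicate transformations of E. coli BL21(DE3) with a pET-22b(+) library were grown overnight at 37°C or 30°C. The library randomised all eight P1ex-region intron nucleotides, the intron lying in the knt kanamycin-resistance gene, and plates were LB agar with or without 25 μg/mL kanamycin plus 100 μg/mL carbenicillin, 50 μM IPTG and 0.2% rhamnose. Pooled colonies were amplicon-sequenced on an Illumina HiSeq 2500, and fitness is the DiMSum error-weighted combination of wild-type-normalised replicate fold changes, kanamycin versus none.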

± gives the uncertainty stated by the source.

On to CUGCAGCAAUAUUACGAGAC, for which the “self-splicing fitness (ln)” value was -2.19 ± 0.16 (30 °C) and -1.31 ± 0.16 (37 °C).

Take CUGCAGCAAUAUUACGAGUC: the “self-splicing fitness (ln)” value (30 °C) is -3.68 ± 0.23 and the “self-splicing fitness (ln)” value (37 °C) is -2.59 ± 0.41.

As for CUGCAGCAAUAUUACGAGUG, the “self-splicing fitness (ln)” value is -0.52 ± 0.053 (30 °C) and 0.112 ± 0.087 (37 °C).

Regarding CUGCAGCAAUAUUACGAGUU, the “self-splicing fitness (ln)” value runs as follows: (30 °C) -3.55 ± 0.21; (37 °C) -2.83 ± 0.28.

As to CUGCAGCAAUAUUACGAUUU, the “self-splicing fitness (ln)” value is, setting by setting: (30 °C) -4.06 ± 0.17; (37 °C) -1.7 ± 0.14.

In the case of CUGCAGCAAUAUUACGCACA, the “self-splicing fitness (ln)” value (30 °C) is -2.82 ± 0.19 and the “self-splicing fitness (ln)” value (37 °C) is -1.48 ± 0.19.

In the case of CUGCAGCAAUAUUACGCGAC, the “self-splicing fitness (ln)” value was -2.19 ± 0.14 (30 °C) and -0.91 ± 0.12 (37 °C).

Take CUGCAGCAAUAUUACGCGAG: the “self-splicing fitness (ln)” value runs as follows: (30 °C) -3.67 ± 0.17; (37 °C) -1.98 ± 0.15.

In the case of CUGCAGCAAUAUUACGGCCG, the “self-splicing fitness (ln)” value runs as follows: (30 °C) -0.291 ± 0.12; (37 °C) -0.672 ± 0.14.

On to CUGCAGCAAUAUUACGGCUA, for which the “self-splicing fitness (ln)” value (30 °C) is -2.6 ± 0.19 and the “self-splicing fitness (ln)” value (37 °C) is -0.78 ± 0.17.

On to CUGCAGCAAUAUUACGGGAG, for which the “self-splicing fitness (ln)” value was -2.74 ± 0.11 (30 °C) and -1.79 ± 0.12 (37 °C).

Turning to CUGCAGCAAUAUUACGGGUG, the “self-splicing fitness (ln)” value by setting is: (30 °C) -0.771 ± 0.049; (37 °C) -0.0809 ± 0.058.

CUGCAGCAAUAUUACGGUCA: the “self-splicing fitness (ln)” value runs as follows: (30 °C) -3.07 ± 0.23; (37 °C) -2.18 ± 0.16.

In the case of CUGCAGCAAUAUUACGUAAU, the “self-splicing fitness (ln)” value was -4.74 ± 0.2 (30 °C) and -2.04 ± 0.16 (37 °C).

On to CUGCAGCAAUAUUACGUACU, for which the “self-splicing fitness (ln)” value reads like this: (30 °C) -2.89 ± 0.2; (37 °C) -1.69 ± 0.21.

In the case of CUGCAGCAAUAUUACGUAGU, the “self-splicing fitness (ln)” value (30 °C) is -4.54 ± 0.45 and the “self-splicing fitness (ln)” value (37 °C) is -2.5 ± 0.28.

CUGCAGCAAUAUUACGUCUA: the “self-splicing fitness (ln)” value (30 °C) is -1.64 ± 0.12 and the “self-splicing fitness (ln)” value (37 °C) was -0.709 ± 0.15.

For CUGGAGCAAUAUUACGAAAU, the “self-splicing fitness (ln)” value runs as follows: (30 °C) -3.11 ± 0.22; (37 °C) -2.72 ± 0.29.

CUGGAGCAAUAUUACGAACG: the “self-splicing fitness (ln)” value (30 °C) is -0.869 ± 0.15 and the “self-splicing fitness (ln)” value (37 °C) worked out at 0.129 ± 0.16.

For CUGGAGCAAUAUUACGAAUG, the “self-splicing fitness (ln)” value was -1.88 ± 0.12 (30 °C) and 0.0741 ± 0.15 (37 °C).

With CUGGAGCAAUAUUACGACAA, the “self-splicing fitness (ln)” value reads like this: (30 °C) -2.11 ± 0.2; (37 °C) -1.7 ± 0.2.

As to CUGGAGCAAUAUUACGACAU, the “self-splicing fitness (ln)” value runs as follows: (30 °C) -2.19 ± 0.019; (37 °C) -1.3 ± 0.036.

For CUGGAGCAAUAUUACGACCG, the “self-splicing fitness (ln)” value by setting is: (30 °C) -0.607 ± 0.082; (37 °C) 0.106 ± 0.14.

As to CUGGAGCAAUAUUACGAUAC, where the note is “30 °C”, the “self-splicing fitness (ln)” value is -2.26 ± 0.22.

Take CUGGAGCAAUAUUACGAUGU: the “self-splicing fitness (ln)” value is -3.26 ± 0.16 (30 °C) and -2.97 ± 0.23 (37 °C).

As for CUGGAGCAAUAUUACGAUUU, the “self-splicing fitness (ln)” value was -4.07 ± 0.46 (30 °C) and -2.01 ± 0.34 (37 °C).

As for CUGGAGCAAUAUUACGCAGU, the “self-splicing fitness (ln)” value (37 °C) is -1.99 ± 0.43.

For CUGGAGCAAUAUUACGCGGA, the “self-splicing fitness (ln)” value (30 °C) was -1.86 ± 0.24.

As to CUGGAGCAAUAUUACGGAGC, the “self-splicing fitness (ln)” value is, setting by setting: (30 °C) -3.08 ± 0.34; (37 °C) -2.38 ± 0.38.

CUGGAGCAAUAUUACGGAUU: the “self-splicing fitness (ln)” value reads like this: (30 °C) -3.29 ± 0.43; (37 °C) -2.83 ± 0.34.

Turning to CUGGAGCAAUAUUACGGCAA, the “self-splicing fitness (ln)” value is -2.52 ± 0.25 (30 °C) and -2.75 ± 0.3 (37 °C).

As for CUGGAGCAAUAUUACGGCUC, where the note is “30 °C”, the “self-splicing fitness (ln)” value is -2.58 ± 0.3.

For the sequence CUGGAGCAAUAUUACGGUCG, the “self-splicing fitness (ln)” value was -1.2 ± 0.087 (30 °C) and -0.266 ± 0.12 (37 °C).

On to CUGGAGCAAUAUUACGUAUA, for which the “self-splicing fitness (ln)” value was -3.12 ± 0.36 (30 °C) and -2.48 ± 0.3 (37 °C).

As for CUGGAGCAAUAUUACGUCGA, the “self-splicing fitness (ln)” value was -3.15 ± 0.29 (30 °C) and -2.82 ± 0.34 (37 °C).

Turning to CUGGAGCAAUAUUACGUGAU, the “self-splicing fitness (ln)” value runs as follows: (30 °C) -2.53 ± 0.076; (37 °C) -1.18 ± 0.078.

Turning to CUGGAGCAAUAUUACGUUGG, the “self-splicing fitness (ln)” value (30 °C) is -2.89 ± 0.14 and the “self-splicing fitness (ln)” value (37 °C) is -1.86 ± 0.15.

As to CUGUAGCAAUAUUACGAAAU, the “self-splicing fitness (ln)” value is, setting by setting: (30 °C) -3.22 ± 0.23; (37 °C) -2.54 ± 0.26.

(Values after the supplement of paper PMC7877785.)
